Source: paper PMC8503589 (The Journal of Biological Chemistry, 2021)

Key:
[1] = system: T1, B. cihuensis ADC; conditions: 50 mM HEPES pH 7.7, 100 mM NaCl, 20 μM PLP, 1 mM DTT, 26 °C
T1 construct: gene aADC

[2] = system: T2, C. botulinum ODC (aODC)
T2 construct: gene CLI_3176

[3] = system: F. necrophorum ODC (aODC); conditions: 50 mM HEPES pH 7.7, 100 mM NaCl, 20 μM PLP, 1 mM DTT, 26 °C
[4] = substrate: N=C(N)NCCC[C@H](N)C(=O)O; test: purified protein; conditions: 50 mM HEPES pH 7.7, 100 mM NaCl, 20 μM PLP, 1 mM DTT, 26 °C
[5] = substrate: NCCCC[C@H](N)C(=O)O; test: purified protein; conditions: 50 mM HEPES pH 7.7, 100 mM NaCl, 20 μM PLP, 1 mM DTT, 26 °C
[6] = substrate: NCCC[C@H](N)C(=O)O; test: purified protein; conditions: 50 mM HEPES pH 7.7, 100 mM NaCl, 20 μM PLP, 1 mM DTT, 26 °C

| Molecule | Km [2] [µM] | Km [3] [µM] | Km [4] [µM] | kcat [4] [s⁻¹] | kcat/Km [4] [M⁻¹ s⁻¹] | also measured |
| --- | --- | --- | --- | --- | --- | --- |
| N=C(N)NCCC[C@H](N)C(=O)O [L-arginine] | 3800 ± 250 | 19000 ± 2300 |  |  |  | Km [1]: 450 ± 10 µM |
| NCCC[C@H](N)C(=O)O [L-ornithine] | 600 ± 30 | 650 ± 30 |  |  |  |  |
| NCCCC[C@H](N)C(=O)O [L-lysine] | 2000 ± 90 | 4000 ± 1700 |  |  |  |  |
| H. thermocellum ADC (aADC) (Acetivibrio thermocellus ATCC 27405) (protein) MVLRMNQLKTPVFDAVKRYVESNVIQFHVPGHKQGAGLEELREYIGETALKMDANGMEDLDFANNPTGVIYESEMLAAQAFGAQHAYFLVNGTTSGVQAMIMSACEPGDKIILPRNAHKSTIGGIILSGAVPVYVQPEINEKLGIAMGITVESLKKAIKENPHAKAVFIINPTYYGIASDLKSLVRIAHRYEMAVLVDEAHGAHMSFHDDFPLTAMEVGADMSAVSTHKTGGSLTQSSLLLLRGNMISPERVKQVLNLTYTSSASYLLMCSLDIARKQLATKGSDMLEETLRLARMAREEINKIEGLYAFGKELIGTPGCHDFDETKLGICVSGLGYTGYEMEAKLRKEYNIQIEMSDLSNILAIVSIGDREENLVALINALKDIAAKTEKKEYPKPPIIPPTPKMIVSPRDAFYSPKKIVPLDKSVGEISGEMVMAYPPGIPVVCMGERITQDIVDYIKILKEQKTQLQGTADPYIDHIMVLGVD |  |  | 130 ± 10 | 0.05 | 410 |  |
| Psychrilyobacter sp. S5 ADC (Psychrilyobacter piezotolerans) (protein) MQNKTPLFDALKNYHKTDIVSFDVPGHKKRFQNEFSDYVGHKIIELDTNSMKELDILNNPTGVIREAHQLMADAYSADEAFFLVNGTTSGIQTMVMSACNPGDKIILPRNVHKSAINALILSGATPVYIDPEVDETLGISLGISVEKIKEALIKDPDIKAVFIINPTYYGAVSDLEEIIKICHEKNMVVLVDEAHGAHFPFHEKFPKNAMALGADMSAVSIHKTGGSLTQSSVLFLNHRRIKQERVKNMLNLTQTTSASYLLMTSLDVARKTLVTQGDEIFNDLLEMISKFREELNSIPGIRCFKSILSDKLYDFDDTKIGINLHGLGLTGFEGYDILREKYNIQMELADTHNILGIASIGDTWEDYQKLIDALKEMAENYEGNNQLIDFNELESLELVVSPRDAFYSETESIPLSEAIGKVSGESIMVYPPGIPLLIQGERITKDLIDHIYFLKEQKAVITGMNDKTLNNISILKGEHR |  |  | 210 ± 20 | 0.3 | 1400 | Km [5]: 6600 ± 1300 µM; kcat [5]: 0.06 s⁻¹; kcat/Km [5]: 9.5 M⁻¹ s⁻¹ |
| M. blatticola ADC (Methanimicrococcus blatticola) (protein) MDQNATPIIDALREFDQKNITSYDVPGHKRGIREDDFQKLVGKEVYLMDVNSPVGMDTFAHPKGVIKHSLELAAEAYKADNAFYLVNGSSSGVQIMIMTVCYDGEKILIPRNAHKSVTNSLILSGAVPVFMEPEINQNFAIASGMTLKTIQKYVEANPDAKALFLVYPTYYGACADLEQIIEYAHSKDIVVMVDQAHGAHFSFSSALPKSAAELGADLVVASTHKTGGSLTQSAMLLHNEGLVKYHSIKKRVLMFHTTSPSYLLMASLESSRKLLATQGEEIFHELVHECRKVKKEISKIPGLSVLDENEGVTTMTYDPTKIVINVTKLGLDGFDVYDIMFEKYGIQMELAEPTIVLAVIGIGDTKETIWRLVDAFRDLSDTYYGKYEMLDIPEEIVYVPPQILSPRQAFYADKVSVKIGEAVGRVAAEAVMIYPPGIPICIPGELITAETIEEILYCQENSDCVQKDSKEKDHILVVDDSTE |  |  | 650 ± 60 |  |  |  |
| C. exile ODC (Caldisericum exile AZM16c01) (protein) MEQERAPLYEAVSKYIKRKMIPFHMPGHSQGKGAPKILKRLFGDKFFDFDLTEVSGLDYLHYAQGVIREAENLASSLYGTEATIFLVNGTTAGVHAMILDSVRENEKIIIGRNSHRSVIGGILLAKAKPVFVQPEFNEEFGIITNVTPESIKKAITENPDAKAVLVTTPNYYGLQGRIKDIIDIVHENGMRALVDEAHGAHFPFNSKFPKSAIYLGADLVTQSAHKTLPTLTQTSFLHIPSKDVNVDRIEQILSIIESSSPSYIFMTALDVARREMALHGKEMWDKAIEVAEYARERISALDGFKVITDKTINGKDVYAFDPIKLTINVQELGYSGFEFEHILNKNGIEIELADLQNVLLFITIGTSKRDIDTLVSVLKRIEPRKEKSTVRMPKLPEAPSFAMLPFEAFQREFEVVPLRETKGRVSWGIVAPYPPGIPVLAPGMIIDEECIEFTQEVFEKGGLVQGSIRYGSEIAIRVVKGE |  |  | 540 ± 40 | 0.04 ± 0.002 | 82 ± 3.2 | Km [6]: 180 ± 10 µM; kcat [6]: 0.11 s⁻¹; kcat/Km [6]: 590 M⁻¹ s⁻¹ |
| L. ferroxidans LDC (Leptospirillum ferrooxidans C2-3) (protein) MTPYDHNRTPLFDAMVALAESRKVSFHTPGHKSGKGISTRFRKFVGPKVFSIDLTCLDEVDSLQKPRGVIREAQELAADIYGADQSFFLVNGTSGGNQAMILSVMKPGEPILLTRILHKSVVSGLIMTDCKPIFIPLQSTPDCDLLLNDRTDTIIQAMNRHPEAKKLFLTSPNYYGVTLDLPTIIQEAHSRGVTVLVDEAHGPHLHFHDDLPPSAMASNADLCVQSTHKIIGGMTQASILHAKKANIDIERLTSVLRYLQTTSPSYILMASLDLARMQMATEGKKLLSKAIDLARKARERIRKIPGLTCIDRDEVKAASGGDNDLDETKLAIGVKGIGLTGYQVSQKLNHEFGIQVEMADLHHVLVIVSIGDHREDLDRLVRAMEAISHQAMTLKSIIPINVKPPYAIASSRMNPREAFFSSHQSVPLEEALGKTAADIVTVYPPGIPLLIPGEEITQTVLDHLILMRETGATLDGLDSDNRLINIV |  |  |  |  |  | Km [5]: 370 ± 70 µM; kcat [5]: 0.25 s⁻¹; kcat/Km [5]: 700 M⁻¹ s⁻¹; Km [6]: 28000 ± 7200 µM; kcat [6]: 0.17 s⁻¹; kcat/Km [6]: 4.2 M⁻¹ s⁻¹ |
